{"source": "paper PMC9594044", "target": "PtTamH (Pseudoalteromonas tunicata)", "test": "SEC; size exclusion chromatography of purified recombinant PtTamH after IMAC; retention volume corresponds to >200 kDa", "data": [{"substance": "PtTamH (enzyme)", "values": [{"measurement": "stoichiometry N", "value": 2}]}]}
